Measured values published in patent US20190300590A1 (PROTAGONIST THERAPEUTICS, published 2019).
*1 amine or outer side, *2 acyl side, *3 side chain or, on linkers, in order; H or OH if unused. Bridges are numbered along the chain shown (N, C = ends). Primed or numbered codes have the meaning given here. [ ]: non-standard residue; d: D form. Phe(4-(2-acetylaminoethoxy))″ = 4-(2-acetylaminoethoxy)phenylalanine, CC(=O)NCCOc1ccc(C[C@H](N[*:1])C(=O)[*:2])cc1; 2Nal = N[C@@H](Cc1ccc2ccccc2c1)C(=O)O; AEF = NCCOc1ccc(C[C@H](N)C(=O)O)cc1; hArg = N=C(N)NCCCC[C@H](N)C(=O)O; αMeL = CC(C)C[C@](C)(N)C(=O)O; Pen = CC(C)(S)[C@H](N)C(=O)O; αMeK = C[C@](N)(CCCCN)C(=O)O; αMeS = C[C@](N)(CO)C(=O)O; Iva = CC[C@](C)(N)C(=O)O; Abu = CC[C@H](N)C(=O)O; Dap = NC[C@H](N)C(=O)O; Aib = CC(C)(N)C(=O)O; AEA = NCCOCC(=O)O

B1: Ac-[Pen]-QTWQ-[Pen]-[2-Nal]-[2-Nal]-[α-MeLys]-ENG-NH2 (peptide)
peptide: Ac-[Pen]QTWQ[Pen][2Nal][2Nal][αMeK]ENG-NH2
modifications: disulfide 1-6
SMILES: CC(=O)N[C@@H]1C(=O)N[C@@H](CCC(N)=O)C(=O)N[C@@H]([C@@H](C)O)C(=O)N[C@@H](Cc2c[nH]c3ccccc23)C(=O)N[C@@H](CCC(N)=O)C(=O)N[C@H](C(=O)N[C@@H](Cc2ccc3ccccc3c2)C(=O)N[C@@H](Cc2ccc3ccccc3c2)C(=O)N[C@@](C)(CCCCN)C(=O)N[C@@H](CCC(=O)O)C(=O)N[C@@H](CC(N)=O)C(=O)NCC(N)=O)C(C)(C)SSC1(C)C

What was measured:
IL-23R on DB cells = target: T1, IL-23R on DB cells (human, UniProt Q5VWK5 24-629); assay: cell-based or functional assay
T1 sequence (looked up): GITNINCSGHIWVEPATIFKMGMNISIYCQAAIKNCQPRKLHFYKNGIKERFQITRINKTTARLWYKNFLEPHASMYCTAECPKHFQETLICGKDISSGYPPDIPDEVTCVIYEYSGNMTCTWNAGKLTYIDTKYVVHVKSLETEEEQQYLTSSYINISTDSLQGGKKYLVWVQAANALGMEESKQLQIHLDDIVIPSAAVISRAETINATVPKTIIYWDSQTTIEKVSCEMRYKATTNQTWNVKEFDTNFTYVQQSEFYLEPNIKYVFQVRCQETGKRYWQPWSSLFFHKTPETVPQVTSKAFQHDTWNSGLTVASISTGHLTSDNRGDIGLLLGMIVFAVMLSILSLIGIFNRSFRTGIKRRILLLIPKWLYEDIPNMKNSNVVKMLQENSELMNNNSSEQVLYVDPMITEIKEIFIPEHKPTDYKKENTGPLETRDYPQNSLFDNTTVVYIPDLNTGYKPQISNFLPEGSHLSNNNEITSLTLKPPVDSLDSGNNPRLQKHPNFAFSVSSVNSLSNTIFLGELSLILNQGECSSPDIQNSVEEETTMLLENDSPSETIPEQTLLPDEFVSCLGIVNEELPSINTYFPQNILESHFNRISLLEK

[1] = target: T2, IL-23R on human cells (IL-23R-expressing DB cells; human NK cells) (human, UniProt Q5VWK5 24-629); assay: cell-based or functional assay
T2 sequence (looked up): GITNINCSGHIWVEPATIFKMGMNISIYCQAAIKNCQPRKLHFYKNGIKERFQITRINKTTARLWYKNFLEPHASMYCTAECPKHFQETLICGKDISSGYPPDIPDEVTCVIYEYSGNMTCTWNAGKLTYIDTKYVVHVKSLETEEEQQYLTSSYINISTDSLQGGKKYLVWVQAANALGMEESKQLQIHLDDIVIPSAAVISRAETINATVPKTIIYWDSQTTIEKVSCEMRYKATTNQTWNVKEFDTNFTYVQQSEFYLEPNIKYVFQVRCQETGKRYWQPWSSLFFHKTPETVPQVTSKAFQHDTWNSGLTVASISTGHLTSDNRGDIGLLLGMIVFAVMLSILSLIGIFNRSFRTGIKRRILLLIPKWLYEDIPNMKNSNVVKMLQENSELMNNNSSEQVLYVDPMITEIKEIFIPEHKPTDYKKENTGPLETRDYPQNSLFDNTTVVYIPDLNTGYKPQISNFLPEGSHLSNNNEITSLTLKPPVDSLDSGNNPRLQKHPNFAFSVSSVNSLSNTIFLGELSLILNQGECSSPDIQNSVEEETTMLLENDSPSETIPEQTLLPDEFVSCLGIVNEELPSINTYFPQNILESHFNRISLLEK

IL23R_huFC = target: T3, IL23R_huFC (human, UniProt Q5VWK5 24-353); assay: human ELISA vs IL-23
T3 sequence (looked up): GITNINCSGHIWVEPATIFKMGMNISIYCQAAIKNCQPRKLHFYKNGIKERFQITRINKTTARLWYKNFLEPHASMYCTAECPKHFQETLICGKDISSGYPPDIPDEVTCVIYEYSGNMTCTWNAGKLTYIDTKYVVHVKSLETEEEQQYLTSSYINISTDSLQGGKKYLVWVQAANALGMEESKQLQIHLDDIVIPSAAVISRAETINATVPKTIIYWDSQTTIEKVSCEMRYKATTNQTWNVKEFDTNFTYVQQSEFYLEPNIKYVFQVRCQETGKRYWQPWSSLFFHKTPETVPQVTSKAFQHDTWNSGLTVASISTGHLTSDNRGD

Binder	pStat3 HTRF IC50 (IL-23R on DB cells) [nM]	pStat3 HTRF IC50 [1] [nM]	IC50 (IL23R_huFC) [nM]
XNTWQXFXXKNA (Ac; Pen-Pen disulfide; Phe(4-OMe); 2-Nal; Aib; Lys(Ac); NH2) [Ac-[Pen]-NTWQ-[Pen]-[Phe(4-OMe)]-[2-Nal]-[Aib]-[Lys(Ac)]-NA-NH2]	< 10	–	–
Ac-R[Abu]QTWQC[AEF][2Nal][αMeK]ENN-NH2 (thioether 2-7) [Ac-Arg-Cyclo-[[Abu]-QTWQC]-[Phe[4-(2-aminoethoxy)]]-[2-Nal]-[α-MeLys]-ENN-NH2]	–	< 10	< 10
XQTWQXFXXENN (Ac; Pen-Pen disulfide; Phe[4-(2-aminoethoxy)]; 2-Nal; Aib; NH2) [Ac-[Pen]-QTWQ-[Pen]-[Phe[4-(2-aminoethoxy)]-[2-Nal]-[Aib]-ENN-NH2]	< 10	–	–
XNTWQXFXXKNN (Ac; Pen-Pen disulfide; Phe[4-(2-aminoethoxy)]; 2-Nal; Aib; Lys(Ac); NH2) [Ac-[Pen]-NTWQ-[Pen]-[Phe[4-(2-aminoethoxy)]-[2-Nal]-[Aib]-[Lys(Ac)]-NN-NH2]	< 10	–	–
XQTWQXFXXKNN (Ac; Pen-Pen disulfide; Phe[4-(2-aminoethoxy)]; 2-Nal; Aib; Lys(Ac); NH2) [Ac-[Pen]-QTWQ-[Pen]-[Phe[4-(2-aminoethoxy)]-[2-Nal]-Aib-[Lys(Ac)]-NN-NH2]	< 10	–	–
B1	10 to 25	–	–
XQTWQXFXXENN (Ac; Pen-Pen disulfide; Phe(4-OMe); 2-Nal; Aib; NH2) [Ac-[Pen]-QTWQ-[Pen]-[Phe(4-OMe)]-[2-Nal]-[Aib]-ENN-NH2]	< 10	–	–
XNTWQXFXXKNA (Ac; Pen-Pen disulfide; Phe(4-OMe); 2-Nal; Aib; Lys(Ac); βAla; NH2) [Ac-[Pen]-NTWQ-[Pen]-[Phe(4-OMe)]-[2-Nal]-[Aib]-[Lys(Ac)]-N-[βAla]-NH2]	< 10	–	–
Ac-[Abu]TWQC[AEF][2Nal][αMeK]ENG-NH2 (thioether 1-5) [Ac-Cyclo-[[Abu]-TWQC]-[Phe[4-(2-aminoethoxy)]]-[2-Nal]-[α-MeLys]-ENG-NH2]	–	< 10	< 10
XQTWQXFXLENA (Ac; Pen-Pen disulfide; Phe[4-(2-aminoethoxy)]; 2-Nal; hLeu; NH2) [Ac-[Pen]-QTWQ-[Pen]-[Phe[4-(2-aminoethoxy)]-[2-Nal]-[hLeu]-ENA-NH2]	10 to 25	–	–
XQTWQXFXXENN (Ac; Pen-Pen disulfide; Phe[4-(2-acetylaminoethoxy)]; 2-Nal; Aib; NH2) [Ac-[Pen]-QTWQ-[Pen]-[Phe[4-(2-acetylaminoethoxy)]-[2-Nal]-[Aib]-ENN-NH2]	< 10	–	–
Ac-[Abu]QTWQC[AEF][2Nal][Aib]KNG-NH2 (thioether 1-6) [Ac-Cyclo-[[Abu]-QTWQC]-[Phe[4-(2-aminoethoxy)]]-[2-Nal]-[Aib]-KNG-NH2]	–	< 10	< 10
Ac-[Abu]QTWQC[AEF][2Nal][Aib]K(Ac)NG-NH2 (thioether 1-6) [Ac-Cyclo-[[Abu]-QTWQC]-[Phe[4-(2-aminoethoxy)]]-[2-Nal]-[Aib]-[Lys(Ac)]-NG-NH2]	–	< 10	< 10
XQTWQCFXXKNG (as bracketed in name; thioether cyclo) [Ac-Cyclo-[[Abu]-QTWQC]-[Phe[4-(2-aminoethoxy)]]-[2-Nal]-[α-Me-Orn]-[Lys(Ac)]-NG-NH2]	–	< 10	< 10
XNTWQXFXXKNN (Ac; Pen-Pen disulfide; Phe(4-OMe); 2-Nal; Aib; Lys(Ac); NH2) [Ac-[Pen]-NTWQ-[Pen]-[Phe(4-OMe)]-[2-Nal]-[Aib]-[Lys(Ac)]-NN-NH2]	< 10	–	–
XQTWQCFXKXNG (as bracketed in name; thioether cyclo) [Ac-Cyclo-[[Abu]-QTWQC]-[Phe[4-(2-aminoethoxy)]]-[2-Nal]-[α-MeLys]-[Orn]-NG-NH2]	–	< 10	< 10
XNTWQXFXLENA (Ac; Pen-Pen disulfide; Phe[4-(2-aminoethoxy)]; 2-Nal; hLeu; NH2) [Ac-[Pen]-NTWQ-[Pen]-[Phe[4-(2-aminoethoxy)]-[2-Nal]-[hLeu]-ENA-NH2]	< 10	–	–
Ac-[Pen][Dap]TWQ[Pen][AEF][2Nal][αMeK]ENG-NH2 (disulfide 1-6 (inferred)) [Ac-[Pen]-[Dap]-TWQ-[Pen]-[Phe[4-(2-aminoethoxy)]-[2-Nal]-[α-MeLys]-ENG-NH2]	< 10	–	–

Binder	pStat3 HTRF IC50 (IL-23R on DB cells) [nM]	pStat3 HTRF IC50 [1] [nM]	IC50 (IL23R_huFC) [nM]
Ac-[Pen]TTWQ[Pen][AEF][2Nal][Aib]K(Ac)NN-NH2 (disulfide 1-6 (inferred)) [Ac-[Pen]-TTWQ-[Pen]-[Phe[4-(2-aminoethoxy)]-[2-Nal]-[Aib]-[Lys(Ac)]-NN-NH2]	< 10	–	–
XQTWQXFXXKNN (Ac; Pen-Pen disulfide; Phe[4-(2-acetylaminoethoxy)]; 2-Nal; Aib; Lys(Ac); NH2) [Ac-[Pen]-QTWQ-[Pen]-[Phe[4-(2-acetylaminoethoxy)]-[2-Nal]-[Aib]-[Lys(Ac)]-NN-NH2]	< 10	–	–
Ac-[Abu]QTWQC[AEF]W[αMeL]ENG-NH2 (thioether 1-6) [Ac-Cyclo-[[Abu]-QTWQC]-[Phe[4-(2-aminoethoxy)]]-W-[α-Me-Leu]-ENG-NH2]	–	< 10	< 10
Ac-[Abu]QTWQC[AEF][2Nal][αMeK]K(Ac)NG[AEA][dK]-NH2 (thioether 1-6) [Ac-Cyclo-[[Abu]-QTWQC]-[Phe[4-(2-aminoethoxy)]]-[2-Nal][α-MeLys]-[Lys(Ac)]--NG-[AEA]-[(D)Lys]-NH2]	–	< 10	< 10
XNTWQXFXXENN (Ac; Pen-Pen disulfide; Phe(4-OMe); 2-Nal; Aib; NH2) [Ac-[Pen]-NTWQ-[Pen]-[Phe(4-OMe)]-[2-Nal]-[Aib]-ENN-NH2]	< 10	–	–
XQTWQXYXXENG (Ac; Pen-Pen disulfide; 2-Nal; α-MeOrn; NH2) [Ac-[Pen]-QTWQ-[Pen]-Y-[2-Nal]-[α-MeOrn]-ENG-NH2]	10 to 25	–	–
XNTWQXFXXKNQ (Ac; Pen-Pen disulfide; Phe[4-(2-aminoethoxy)]; 2-Nal; Aib; Lys(Ac); NH2) [Ac-[Pen]-NTWQ-[Pen]-[Phe[4-(2-aminoethoxy)]-[2-Nal]-[Aib]-[Lys(Ac)]-NQ-NH2]	< 10	–	–
Ac-[Pen]TTWQ[Pen][AEF][2Nal][Aib]K(Ac)NQ-NH2 (disulfide 1-6 (inferred)) [Ac-[Pen]-TTWQ-[Pen]-[Phe[4-(2-aminoethoxy)]-[2-Nal]-[Aib]-[Lys(Ac)]-NQ-NH2]	< 10	–	–
Ac-[Abu]QTWQC[AEF][2Nal][αMeK][hArg]NG-NH2 (thioether 1-6) [Ac-Cyclo-[[Abu]-QTWQC]-[Phe[4-(2-aminoethoxy)]]-2-Nal]-[α-MeLys]-hRNG-NH2]	–	< 10	< 10
Ac-[Abu]TTWQC[AEF][2Nal][αMeK]ENG-NH2 (thioether 1-6) [Ac-Cyclo-[[Abu]-TTWQC]-[Phe[4-(2-aminoethoxy)]]-[2-Nal]-[α-MeLys]-ENG-NH2]	–	< 10	< 10
Ac-[Abu]QTWQC[AEF][2Nal][αMeS]K(Ac)NG-NH2 (thioether 1-6) [Ac-Cyclo-[[Abu]-QTWQC]-[Phe[4-(2-aminoethoxy)]]-[2-Nal]-[α-MeSer]-[Lys(Ac)]-NG-NH2]	–	< 10	< 10
Ac-[Abu]QTWQC[AEF][2Nal][Iva]K(Ac)NG-NH2 (thioether 1-6) [Ac-Cyclo-[[Abu]-QTWQC]-[Phe[4-(2-aminoethoxy)]]-[2-Nal]-[α-Me-Gly(Ethyl)]Lys(Ac)]-NG-NH2]	–	< 10	< 10
Ac-[Abu]QTWQC[AEF][2Nal][αMeK]QNG-NH2 (thioether 1-6) [Ac-Cyclo-[[Abu]-QTWQC]-[Phe[4-(2-aminoethoxy)]]-[2-Nal]-[α-MeLys]-QNG-NH2]	–	< 10	< 10
Ac-[Abu]QTWQC[AEF][2Nal][αMeK]NNG-NH2 (thioether 1-6) [Ac-Cyclo-[[Abu]-QTWQC]-[Phe[4-(2-aminoethoxy)]]-[2-Nal]-[α-MeLys]-NNG-NH2]	–	< 10	< 10
Ac-[Pen][Dap](Ac)TWQ[Pen][Phe(4-(2-acetylaminoethoxy))″][2Nal][αMeK](Ac)ENG-NH2 (disulfide 1-6 (inferred)) [Ac-[Pen]-Dap(Ac)TWQ-[Pen]-[Phe[4-(2-acetylaminoethoxy)]-[2-Nal]-[α-MeLys(Ac)]-ENG-NH2]	< 10	–	–
XNTWQXFXXKNA (Ac; Pen-Pen disulfide; Phe[4-(2-aminoethoxy)]; 2-Nal; Aib; Lys(Ac); NH2) [Ac-[Pen]-NTWQ-[Pen]-[Phe[4-(2-aminoethoxy)]-[2-Nal]-[Aib]-[Lys(Ac)]-NA-NH2]	< 10	–	–
XQTWQXFXXKNN (Ac; Pen-Pen disulfide; Phe(4-OMe); 2-Nal; Aib; Lys(Ac); NH2) [Ac-[Pen]-QTWQ-[Pen]-[Phe(4-OMe)]-[2-Nal]-[Aib]-[Lys(Ac)]-NN-NH2]	< 10	–	–
